B1: ZNF207 1–122 (ZnF+Hel), recombinant (domain or fragment)
chain: not shown
B2: ZNF207 full-length, recombinant (natural protein)
chain: not shown

Tests used:
[1] = target: U1 snRNP (lacking the Sm ring), reconstituted (human, UniProt P08621-1 1-216; P09012 1-282; P09234 1-159); assay: pull-down
[2] = target: U1–70K (SNRNP70) 1–216, recombinant (human, UniProt P08621-1 1-216); assay: pull-down
Chain of U1–70K (SNRNP70) 1–216, recombinant (P08621 1-216): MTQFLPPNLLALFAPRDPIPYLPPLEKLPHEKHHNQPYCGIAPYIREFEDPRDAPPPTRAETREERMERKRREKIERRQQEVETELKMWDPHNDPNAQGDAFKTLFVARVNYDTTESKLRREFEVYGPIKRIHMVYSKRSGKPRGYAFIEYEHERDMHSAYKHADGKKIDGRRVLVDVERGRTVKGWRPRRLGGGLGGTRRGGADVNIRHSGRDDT

Chain of U1 snRNP (lacking the Sm ring), reconstituted (P08621 1-216, chain 1 of 3): as the sequence (P08621 1-216) above
Chain of U1 snRNP (lacking the Sm ring), reconstituted (P09012 whole entry, chain 2 of 3): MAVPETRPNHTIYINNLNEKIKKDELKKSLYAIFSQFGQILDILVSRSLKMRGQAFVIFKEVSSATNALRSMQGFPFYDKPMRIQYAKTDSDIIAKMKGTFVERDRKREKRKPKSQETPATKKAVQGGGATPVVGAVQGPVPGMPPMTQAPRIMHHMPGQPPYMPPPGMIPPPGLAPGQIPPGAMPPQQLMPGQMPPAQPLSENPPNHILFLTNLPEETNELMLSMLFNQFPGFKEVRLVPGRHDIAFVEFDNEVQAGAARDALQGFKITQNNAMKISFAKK
Chain of U1 snRNP (lacking the Sm ring), reconstituted (P09234 whole entry, chain 3 of 3): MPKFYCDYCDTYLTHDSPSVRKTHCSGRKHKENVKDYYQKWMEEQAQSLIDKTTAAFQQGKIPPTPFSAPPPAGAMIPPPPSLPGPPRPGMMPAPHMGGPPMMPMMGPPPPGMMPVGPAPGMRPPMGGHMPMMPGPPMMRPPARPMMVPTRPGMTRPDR

Binder | binding result [1] | binding result [2]
B1 | binds | binds
B2 | binds | –
